Consider one substance from paper PMC10248797.

The target in assay [1] is Lis1 with N-terminal HaloTag (UniProt P43034). The assay is described as follows: pull-down; depletion of dynein from solution by Lis1 (0-600 nM) coupled to magnetic beads via its N-terminal HaloTag; SDS-PAGE densitometry of the supernatant; one-site fit with Bmax set to 1.
Assay [2] addresses Full-length Ndel1 with N-terminal HaloTag and C-terminal 6X-His tag (UniProt Q9GZM8). The assay is described as follows: pull-down; depletion of 5 nM dynein from solution by Ndel1 (0-600 nM) coupled to Magne HaloTag beads; 45 min; binding buffer 30 mM Hepes pH 7.4, 2 mM magnesium acetate, 1 mM EGTA, 10% glycerol, 1 mM DTT, 1 mg/ml casein, 0.1% NP-40, 1 mM ADP, 36 mM KCl; SDS-PAGE densitometry of the supernatant; one-site fit with Bmax set to 1.

Assay [3] addresses Ndel1 with the C-terminal coiled coil (256-291) deleted, N-terminal HaloTag and C-terminal 6X-His tag (UniProt Q9GZM8). Described as above.
For assay [4], the target named is Full-length phosphomimetic Ndel1 (S198D; T219D; S231D; S242D) with N-terminal HaloTag and C-terminal 6X-His tag (UniProt Q9GZM8). The description is as above.
Full-length phosphomimetic Ndel1 (S198D; T219D; S231D; S242D) with N-terminal HaloTag and C-terminal 6X-His tag, sequence (Q9GZM8 whole entry S198D/T219D/S231D/S242D): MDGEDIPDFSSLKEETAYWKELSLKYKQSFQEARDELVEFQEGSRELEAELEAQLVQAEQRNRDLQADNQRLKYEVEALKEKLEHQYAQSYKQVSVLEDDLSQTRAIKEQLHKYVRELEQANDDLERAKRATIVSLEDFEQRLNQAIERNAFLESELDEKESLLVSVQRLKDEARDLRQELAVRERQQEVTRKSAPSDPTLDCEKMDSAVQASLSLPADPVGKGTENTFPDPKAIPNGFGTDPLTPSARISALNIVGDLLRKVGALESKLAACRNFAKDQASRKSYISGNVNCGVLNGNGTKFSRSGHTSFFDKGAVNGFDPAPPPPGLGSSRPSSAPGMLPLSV
Assay [5] has as its target N-terminal coiled coil of Ndel1 (1-192) with N-terminal HaloTag and C-terminal 6X-His tag (UniProt Q9GZM8). The assay is described as above.

The term Kd denotes the constant that tells how readily two partners part at equilibrium.

Lis1 with N-terminal HaloTag, sequence (P43034 whole entry): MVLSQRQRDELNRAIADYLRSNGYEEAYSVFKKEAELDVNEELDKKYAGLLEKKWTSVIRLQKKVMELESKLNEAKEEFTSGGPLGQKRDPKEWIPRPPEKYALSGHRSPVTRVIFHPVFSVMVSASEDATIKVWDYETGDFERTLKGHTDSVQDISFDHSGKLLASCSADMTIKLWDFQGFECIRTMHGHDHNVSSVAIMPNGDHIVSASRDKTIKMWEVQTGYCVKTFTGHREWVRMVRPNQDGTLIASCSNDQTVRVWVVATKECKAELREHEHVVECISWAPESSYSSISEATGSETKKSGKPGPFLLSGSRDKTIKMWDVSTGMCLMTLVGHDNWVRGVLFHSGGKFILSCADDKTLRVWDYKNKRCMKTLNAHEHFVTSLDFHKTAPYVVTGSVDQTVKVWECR
N-terminal coiled coil of Ndel1 (1-192) with N-terminal HaloTag and C-terminal 6X-His tag, sequence (Q9GZM8 1-192): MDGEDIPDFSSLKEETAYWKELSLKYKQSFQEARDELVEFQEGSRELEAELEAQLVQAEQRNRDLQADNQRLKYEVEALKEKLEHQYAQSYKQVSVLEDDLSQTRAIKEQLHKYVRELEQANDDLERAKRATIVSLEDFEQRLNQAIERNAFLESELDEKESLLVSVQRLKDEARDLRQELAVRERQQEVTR
Full-length Ndel1 with N-terminal HaloTag and C-terminal 6X-His tag, sequence (Q9GZM8 whole entry): as the sequence (Q9GZM8 whole entry S198D/T219D/S231D/S242D) above, with D198S, D219T, D231S, D242S counted along it
Ndel1 with the C-terminal coiled coil (256-291) deleted, N-terminal HaloTag and C-terminal 6X-His tag, sequence (Q9GZM8 other isoform, or with tags, fused parts or gaps): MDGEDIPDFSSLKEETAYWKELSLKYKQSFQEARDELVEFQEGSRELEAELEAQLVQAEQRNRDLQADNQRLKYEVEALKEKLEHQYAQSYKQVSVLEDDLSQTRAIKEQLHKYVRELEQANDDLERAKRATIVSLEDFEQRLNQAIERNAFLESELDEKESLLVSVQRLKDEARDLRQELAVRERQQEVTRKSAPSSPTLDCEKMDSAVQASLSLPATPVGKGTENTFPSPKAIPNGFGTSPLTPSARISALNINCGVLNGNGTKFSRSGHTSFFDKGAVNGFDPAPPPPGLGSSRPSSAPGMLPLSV

As for “SNAP-tagged, recombinant full-length human cytoplasmic dynein-1 with all associated accessory chains (from UniProt Q14204 1-4646; O43237 1-492; P63172 1-113; Q9NP97 1-96; P63167 1-89) (complex)”, the Kd is 101 nM in assay [1]; 32.8 nM in assay [2]; 55.1 nM in assay [3]; 15.8 nM in assay [4]; 79.3 nM in assay [5].
